Assay results taken from patent US5371006.

System: NotI restriction endonuclease (Nocardia otitidis-caviarum)
Assay: cleavage_in_vitro
Conditions: endonuclease contamination test; 200 units, 4 h, 37 C, NEBuffer 3 + BSA

With phiX174 RFI DNA the activity (% converted to RF II) was under 5.
